± gives the standard deviation.

The data set can be described thus: protein stability index of a GFP-peptide fusion (GPS, HEK-293T) (PSI 1-6); higher = more stable.
[1] abbreviates: treatment: DMSO, c terminus: a fixed tail appended.
The mark [2] stands for this setting: treatment: MLN4924 1 uM, 8 h, c terminus: a fixed tail appended.
The mark [3] stands for this setting: treatment: DMSO, c terminus: native.
Where [4] appears, read: treatment: MLN4924 1 uM, 8 h, c terminus: native.
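Note: 24-mer peptide tiles fused after GFP, lentivirally expressed, FACS-sorted into six equal bins by GFP/DsRed ratio, decoded by Illumina sequencing, PSI is the read-weighted mean bin number.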

For SYLMDHFIPSSHNDRDFLTRIFTE [PPEF2], the protein stability index was determined as 2.5 ± 0.19 under setting [1] and 2.51 ± 0.28 under setting [2].

In the case of SYYNSPGLHVQHMGTSHGITRPSP [CCDC6], the protein stability index was determined as 3.2 ± 0.29 under setting [1] and 3.24 ± 0.39 under setting [2].

As to TAFLPDSKCLVDDGTGRMPTLKKC [GALNT9], the protein stability index reads like this: under setting [1], 4.17 ± 0.18; under setting [2], 4.16 ± 0.31.

Turning to TAIRPLKILPWSPEKIGTRFLLYT [PNLIPRP1], the protein stability index was 2.23 ± 0.21 under setting [1] and 2.37 ± 0.24 under setting [2].

As for TAIRQLTEPSGRVAKKTPTKRSTL [C2CD2L], the protein stability index stood at 4.37 ± 0.15 under setting [1] and 4.44 ± 0.084 under setting [2].

TAISSFTRHVFTCGRRGIKVWSLT [TLE6] returned a protein stability index under setting [1] of 2.15 ± 0.47 and a protein stability index under setting [2] of 2.16 ± 0.44.

Take TAKRINRTSLSSGATVRSFSINSR [CDC14A]: the protein stability index is, setting by setting: under setting [1], 3.26 ± 0.41; under setting [2], 3.6 ± 0.12.

The sequence TAPLTELLHSRNEGVATYAAAVLF [CTNNB1] showed a protein stability index under setting [1] of 2.25 ± 0.46 and a protein stability index under setting [2] of 2.36 ± 0.34.

As to TCGEGYQFRVVRCWKMLSPGFDSS [ADAMTSL2], the protein stability index was 2.77 ± 0.43 under setting [1] and 2.28 ± 0.38 under setting [2].

As to TDFYLIFNDVAKFLKQGDSADETT [CMTM3], the protein stability index amounted to 2.75 ± 0.31 under setting [1] and 2.6 ± 0.33 under setting [2].

Consider TDLEMQIEGLKEELAYLRKNHEEE [KRT16], for which the protein stability index worked out at 5.24 ± 0.098 under setting [1] and 5.45 ± 0.23 under setting [2].

For TEQALRLSVEADINGLRRVLDELT [KRT17], the protein stability index is, setting by setting: under setting [1], 3.07 ± 0.2; under setting [2], 3.18 ± 0.25.

Turning to TEVPYATFTEHPMKYTSEKFLEIC [TPRG1], the protein stability index reads like this: under setting [1], 2.64 ± 0.068; under setting [2], 2.75 ± 0.12.

For TFFGTELAPVRQQELASLLRTYLA [PBXIP1], the protein stability index stood at 2.22 ± 0.29 under setting [1] and 2.48 ± 0.43 under setting [2].

In the case of TGPRLSFPLLPDHATALVEAFRLK [PPEF2], the protein stability index was 2.89 ± 0.23 under setting [1] and 3.07 ± 0.19 under setting [2].

In the case of TGYPYRYPALREKSKKYSDVEVPA [ADD1], the protein stability index reads like this: under setting [1], 3.67 ± 0.081; under setting [2], 3.66 ± 0.044.

Consider THQTQPGIRRARDKALSGGKRKET [NET1], for which the protein stability index is, setting by setting: under setting [1], 4.79 ± 0.23; under setting [2], 5 ± 0.17.

As to TIEQSLLEVMEEEELANLRASQRE [RSPH3], the protein stability index is 4.68 ± 0.24 under setting [1] and 4.88 ± 0.18 under setting [2].

Sequence TILNVRDPTGASIALFTARLHHPH [PTPN9] gave a protein stability index under setting [1] of 2.5 ± 0.21 and a protein stability index under setting [2] of 1.89 ± 0.18.

As for TKFEVRLLRDPADASEAHESSSRG [CHGB], the protein stability index reads like this: under setting [1], 4.61 ± 0.26; under setting [2], 4.64 ± 0.12.

On to TLARCAKDILGFAVMFFIVFFAYA [PKD2L1], for which the protein stability index is, setting by setting: under setting [1], 3.07 ± 0.66; under setting [2], 2.68 ± 0.35.

With TLARMSRRTRGPVERAAAAAAAAA [C6orf223], the protein stability index under setting [1] is 3.02 ± 0.56 and the protein stability index under setting [2] came out at 3.43 ± 0.91.

As for TLDSYEDKQKLKRTEIISRSWFPS [YJU2B], the protein stability index by setting is: under setting [1], 3.14 ± 0.12; under setting [2], 3.24 ± 0.29.

Regarding TLEEIQKHNHSKSTWLILHHKVYD [CYB5A], the protein stability index is, setting by setting: under setting [1], 2.37 ± 0.19; under setting [2], 2.58 ± 0.24.

Consider TLGEQGLPHQSHRQRSSLAKINIV [SCNN1D], for which the protein stability index turned out to be 3.27 ± 0.28 under setting [1] and 3.33 ± 0.1 under setting [2].

For TLLEAEPPHVLISRPSAPFTEASM [ESR2], the protein stability index reads like this: under setting [1], 3.31 ± 0.26; under setting [2], 3.46 ± 0.29.

In the case of TLTKQDTMLKAMFSGRMEVLTDSE [KCTD10], the protein stability index is 4.09 ± 0.26 under setting [1] and 4.32 ± 0.2 under setting [2].

Take TMGMGMPNIAMTSGTVQPKQDAFA [CLINT1]: the protein stability index was 3.9 ± 0.17 under setting [1] and 3.98 ± 0.21 under setting [2].

For TMIQQQNMQQPMNVMTQSFGAVNL [CLINT1], the protein stability index is, setting by setting: under setting [1], 2.69 ± 0.39; under setting [2], 2.94 ± 0.39.

Turning to TNCWLIRELNLPFGGMKSSGIGRE [ALDH8A1], the protein stability index is, setting by setting: under setting [1], 2.31 ± 0.41; under setting [2], 2.29 ± 0.33.

In the case of TNMARIREIMEKFGKQPVSLPARR [CPXM2], the protein stability index worked out at 2.72 ± 0.1 under setting [1] and 3.06 ± 0.31 under setting [2].

In the case of TPEAKDLINKMLTINPSKRITAAE [CAMK2A], the protein stability index was 4.28 ± 0.17 under setting [1] and 4.42 ± 0.1 under setting [2].

For TPIQLQELLALETALGGQCVDRQE [TCAP], the protein stability index was determined as 4.52 ± 0.11 under setting [1] and 4.47 ± 0.26 under setting [2].

TPKLDCFLSGMEAAPRTLAAHPPL [TBX6] gave a protein stability index under setting [1] of 3.18 ± 0.17 and a protein stability index under setting [2] of 3.48 ± 0.2.

With TPMLNPLIYTLKNAEMKSAMRKLW [OR4A15], the protein stability index is, setting by setting: under setting [1], 2.11 ± 0.32; under setting [2], 2.04 ± 0.16.

On to TPVSNSLLPEKAFSDIPSPYLRGT [GFOD1], for which the protein stability index worked out at 4.03 ± 0.28 under setting [1] and 3.98 ± 0.1 under setting [2].

Turning to TQAHIQECKHPSVFQHGDNSFRLL [MCOLN1], the protein stability index reads like this: under setting [1], 2.78 ± 0.11; under setting [2], 2.92 ± 0.16.

In the case of TQELVAIKIIKNKKAFLNQAQIEL [DYRK1B], the protein stability index reads like this: under setting [1], 2.18 ± 0.27; under setting [2], 2.17 ± 0.3.

As for TQIEDATEKLKANAESSKTWLKGK [TRIM14], the protein stability index reads like this: under setting [1], 4.95 ± 0.37; under setting [2], 5 ± 0.18.

For the sequence TREKAKFSDGEKCRREAFRRLGNG [PHTF1], the protein stability index worked out at 3.65 ± 0.17 under setting [1] and 3.62 ± 0.39 under setting [2].

With TRKHYQVTGYGINGTGDSNDFWRI [POMT2], the protein stability index under setting [1] is 2.34 ± 0.25 and the protein stability index under setting [2] turned out to be 2.32 ± 0.28.

Take TRRSTAEAFQIVLSHLLGDAGSPY [SPNS1]: the protein stability index is 2.52 ± 0.58 under setting [1] and 2.56 ± 0.46 under setting [2].

Consider TSDAAFLTQWKDSLVSLVLYNMDL [ZER1], for which the protein stability index is, setting by setting: under setting [1], 2.71 ± 0.52; under setting [2], 2.56 ± 0.44.

Consider TSSKPTALPSASSAYFPGQLPNS [SASS6], for which the protein stability index runs as follows: under setting [3], 4.42 ± 0.41; under setting [4], 4.4 ± 0.26.

Regarding TSSKVNATVPSNMMSVNGQAKTHT [ACBD3], the protein stability index amounted to 4.38 ± 0.13 under setting [1] and 4.45 ± 0.082 under setting [2].

For TSSSLGDKSEYLEMEEGVKESLCA [KCNA4], the protein stability index under setting [1] was 5.1 ± 0.14 and the protein stability index under setting [2] came out at 4.77 ± 0.41.

As to TSSSSSSSRQTRPILKEQSSSSFS [KRT16], the protein stability index by setting is: under setting [1], 4.66 ± 0.14; under setting [2], 4.61 ± 0.11.

On to TTADLDRKLSFSHSDHSSEMSLPE [SPATS1], for which the protein stability index under setting [1] turned out to be 5.08 ± 0.19 and the protein stability index under setting [2] was 4.82 ± 0.27.

Turning to TVAGKHQDLKYISPEIMASVLNGK [CDC25A], the protein stability index reads like this: under setting [1], 3.17 ± 0.2; under setting [2], 3.3 ± 0.32.

TWASPAEVVDLTLDEDSRRKYLL [C18orf25]: the protein stability index under setting [3] came to 4.49 ± 0.44 and the protein stability index under setting [4] stood at 4.68 ± 0.53.

Regarding TYAMGHLIQRKKVHVFGDELSLVT [TNFSF13B], the protein stability index turned out to be 2.32 ± 0.3 under setting [1] and 2.42 ± 0.21 under setting [2].

Turning to TYLENKGHRYPCFFNTLHVGGTIR [POP5], the protein stability index was 2.23 ± 0.14 under setting [1] and 2.19 ± 0.052 under setting [2].

For VAETSGETIQGFWLLTKIDHWNNE [TPRG1], the protein stability index by setting is: under setting [1], 2.11 ± 0.36; under setting [2], 2.31 ± 0.26.

With VALPTEAEFQLVRDVVLCSLLNFL [TENT5C], the protein stability index turned out to be 2.14 ± 0.28 under setting [1] and 2.13 ± 0.37 under setting [2].

For the sequence VCQEVLERSRDVVDEVSVSLRLWD [RHOBTB1], the protein stability index by setting is: under setting [1], 3.1 ± 0.48; under setting [2], 3.36 ± 0.46.

Take VDRLPGLQGALDLLAVLCVDGSGR [ZSWIM9]: the protein stability index came out at 2.01 ± 0.34 under setting [1] and 2.27 ± 0.24 under setting [2].

For the sequence VDYKQSVLNVAGEAGGKQKAVEEE [SLC6A17], the protein stability index is, setting by setting: under setting [1], 5.52 ± 0.44; under setting [2], 5.68 ± 0.3.

As to VEVDESEPYPSQLLKPIPEYSPEE [TRAF3IP2], the protein stability index is, setting by setting: under setting [1], 5.48 ± 0.44; under setting [2], 5.46 ± 0.35.

With VFCDMETDGGGWLVFQRRMDGQTD [TNXB], the protein stability index worked out at 2.9 ± 0.27 under setting [1] and 2.98 ± 0.096 under setting [2].

For VFDAMFNGGMATTSAEIELPDVEP [BTBD1], the protein stability index by setting is: under setting [1], 4.68 ± 0.28; under setting [2], 4.77 ± 0.24.

Take VFGRGDNISDVSKFLEDDKWMEE [LUC7L3]: the protein stability index was determined as 2.4 ± 0.54 under setting [3] and 3.38 ± 0.96 under setting [4].

Consider VFISSYMVLAPVFGYLGDRYNRKY [SPNS1], for which the protein stability index stood at 3.16 ± 0.49 under setting [1] and 2.87 ± 0.62 under setting [2].

In the case of VGESVEEAFYYIHNLVVACEIQVR [ADD1], the protein stability index stood at 2.79 ± 0.37 under setting [1] and 2.91 ± 0.72 under setting [2].

For the sequence VGLIQAAQQLLCDEQAPQRQRLLA [DFFB], the protein stability index reads like this: under setting [1], 3.28 ± 0.12; under setting [2], 3.19 ± 0.12.

Regarding VGSVHVDSGASAITRESHTHRDRP [CSNK1G1], the protein stability index under setting [1] worked out at 4.85 ± 0.25 and the protein stability index under setting [2] was determined as 4.66 ± 0.32.

For the sequence VHRLDLILCNKTAYQEVFKPENIS [SMG5], the protein stability index by setting is: under setting [1], 2.12 ± 0.48; under setting [2], 2.15 ± 0.4.

Take VHRQLGEANEEFALRVQQLVAKEL [AUP1]: the protein stability index is, setting by setting: under setting [1], 3.79 ± 0.076; under setting [2], 3.88 ± 0.1.

Regarding VIAKPSELTSVTAWMLCKLLDKAG [ALDH8A1], the protein stability index under setting [1] amounted to 2.3 ± 0.2 and the protein stability index under setting [2] was determined as 2.3 ± 0.23.

For VKRKKNVLRLCCKKLKIFAMPMQD [PRAME], the protein stability index by setting is: under setting [1], 2.29 ± 0.37; under setting [2], 2.2 ± 0.15.

Take VLDLQRIFALYSSLKFKSRVPQTW [PLD5]: the protein stability index under setting [1] amounted to 3.19 ± 0.94 and the protein stability index under setting [2] was found to be 2.09 ± 0.26.

VLKTSRSTPLSPAYISLVEEEDQH [KLHL13] displayed a protein stability index under setting [1] of 4.77 ± 0.13 and a protein stability index under setting [2] of 4.91 ± 0.17.

With VLKVLSVCSSNKPAIVEAGGMQAL [CTNNB1], the protein stability index is 2.46 ± 0.24 under setting [1] and 2.46 ± 0.098 under setting [2].

Values taken from the supplement of paper PMC10567573.
